Values quoted from earlier work, collected in article PMC5559722.
Like-named read-outs stand apart in the source and are kept apart here. Values belong to the substance of their own block, whether it stands above or below them.

How the values were obtained:
RNF31 PUB (Homo sapiens) = RNF31 PUB (Homo sapiens) (UniProt Q96EP0)
p97 N-domain [1] = target: p97 N-domain (UniProt P55072); experiment: ITC
[2] = target: p97 C-terminal peptide (Homo sapiens) (UniProt P55072)
p97 N-domain [3] = target: p97 N-domain (UniProt P55072)
p97 N-domain [4] = target: p97 N-domain (UniProt P55072); remark: listed apart in the source
p97 N-domain [5] = target: p97 N-domain (UniProt P55072); remark: listed apart in the source

Kd (p97 N-domain [1]): 700 nM
Substance: OTU1 UBXL (from UniProt Q5VVQ6)

Kd [2]: 50000 nM
Substance: RNF31 PUB (from UniProt Q96EP0)

Kd (p97 N-domain [5]): 1000 nM
Substance: FAF1 UBX (from UniProt Q9UNN5)

The next lines start with the substance.

Substance: OTULIN (from UniProt Q96BN8)
Kd (RNF31 PUB (Homo sapiens)): 300 nM

Substance: p47 UBX (from UniProt Q9UNZ2)
Kd (p97 N-domain [3]): 1000 nM

Substance: NPL4 UBXL (from UniProt Q8TAT6)
Kd (p97 N-domain [4]): 18000 nM
